The values that follow come from patent US20240059799A1 (Pfizer, published 2024).

Assay [1] concerns the target T1, recombinant human TL1A (human, UniProt O95150 71-251).
T1 construct: Homotrimeric cytokine; biotinylated with Sulfo-NHS-biotin where captured for SPR, coated unlabelled in ELISA, soluble in bioassays; also called TNFSF15
T1 chain: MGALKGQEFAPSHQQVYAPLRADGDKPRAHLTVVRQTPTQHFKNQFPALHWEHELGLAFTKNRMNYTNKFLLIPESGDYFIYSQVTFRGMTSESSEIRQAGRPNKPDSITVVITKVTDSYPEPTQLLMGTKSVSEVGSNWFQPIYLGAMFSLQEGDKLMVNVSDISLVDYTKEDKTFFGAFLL
Put plainly: competition ELISA, coated TL1A, competitor bio-TL1A-0002. (ELISA stands for enzyme-linked immunosorbent assay.)

The target of assay [2] is T2, full-length human TL1A on CHO-K1 cells (human, UniProt O95150 1-251).
T2 construct: whole, on cells; also called cells over-expressing human TL1A
T2 sequence (looked up): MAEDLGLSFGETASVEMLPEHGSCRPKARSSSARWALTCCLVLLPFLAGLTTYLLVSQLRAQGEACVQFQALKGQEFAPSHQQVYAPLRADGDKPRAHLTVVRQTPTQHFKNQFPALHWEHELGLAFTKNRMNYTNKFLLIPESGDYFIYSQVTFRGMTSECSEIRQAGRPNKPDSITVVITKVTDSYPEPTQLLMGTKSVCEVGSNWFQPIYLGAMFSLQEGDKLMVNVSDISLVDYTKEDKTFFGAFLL
Nature of the assay: flow cytometry, CHO-K1 cells expressing human TL1A, 133 nM; cells, antibody at 133 nM. On the technique in general: In flow cytometry, cells or beads pass a laser one at a time.

The target in assay [3] is T1, recombinant human TL1A. Put plainly: cell-based or functional assay.

B1: TL1A-0002 (antibody, human IgG1, kappa, V domains shown)
VH: QVQLVQSGAEVKKPGASVKVSCKASGYDFTYYGISWVRQAPGQGLEWMGWISTYNGNTHYARMLQGRVTMTTDTSTRTAYMELRSLRSDDTAVYYCARENYYGSGAYRGGMDVWGQGTTVTVSS
VL: EIVLTQSPATLSLSPGERATLSCRASQSVSSYLAWYQQKPGQAPRLLIYDASNRATGIPARFSGSGSGTDFTLTISSLEPEDFAVYYCQQRSNWPWTFGQGTKVEIKR
notes: human IgG1 effector-function-minimized/kappa; also called parental TL1A-0002
For B1, in the assay with recombinant human TL1A [1], the “Bioactivity relative to TL1A-0002” value is 1 fold and the 50% inhibitory concentration (IC50) was found to be 5 nM. Besides, in assay [2], the binding result was “binds”. Moreover, in the assay with recombinant human TL1A [3], the “TF-1 NF-κB reporter cell bioassay IC50” value worked out at 34.7 nM; the “TF-1 NF-κB reporter cell bioassay, Bioactivity relative to TL1A-0002” value worked out at 1 fold; the “Whole blood IFNγ assay IC50” value was 0.83 nM; the “Whole blood IFNγ assay, Bioactivity relative to TL1A-0002” value was 1 fold.

The IC50 is the point on the concentration scale where inhibition reaches its midpoint.
